Data taken from the supplement of paper PMC9233669.
Variants at the floor of the assay were thinned out.

Legend:
biotinyl-Phe-oxazolone = experiment: self-aminoacylation, catalytic enhancement (BFO) (fold over background); higher = more active; k-Seq, kA / k0A0; sequences stand for … in GGGAAUGGAUCCACAUCUACGAAUUC…UUCACUGCAGACUUGACGAAGCUG
Outline: (§1)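 Working in 50 μL HEPES/NaCl/KCl/MgCl2/CaCl2 buffer with 5% acetonitrile at pH 6.9–7.0, mutagenized RNA pools (0.43 μM; 21-nt variable region) were reacted with 2–1250 μM of each biotinyl-aminoacyl-oxazolone for 90 minutes at room temperature. Streptavidin capture followed, with quantification by triplicate qPCR and Illumina sequencing. Catalytic enhancement is reported as median kA over the uncatalyzed rate, the low-activity peak of a bimodal Gaussian fit to the data.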

biotinyl-Ile-oxazolone = experiment: self-aminoacylation, catalytic enhancement (BIO) (fold over background); higher = more active; k-Seq, kA / k0A0; sequences stand for … in GGGAAUGGAUCCACAUCUACGAAUUC…UUCACUGCAGACUUGACGAAGCUG
Outline: as §1

biotinyl-Met-oxazolone = experiment: self-aminoacylation, catalytic enhancement (BMO) (fold over background); higher = more active; k-Seq, kA / k0A0; sequences stand for … in GGGAAUGGAUCCACAUCUACGAAUUC…UUCACUGCAGACUUGACGAAGCUG
Outline: as §1

biotinyl-Val-oxazolone = experiment: self-aminoacylation, catalytic enhancement (BVO) (fold over background); higher = more active; k-Seq, kA / k0A0; sequences stand for … in GGGAAUGGAUCCACAUCUACGAAUUC…UUCACUGCAGACUUGACGAAGCUG
Outline: as §1

biotinyl-Leu-oxazolone = experiment: self-aminoacylation, catalytic enhancement (BLO) (fold over background); higher = more active; k-Seq, kA / k0A0; sequences stand for … in GGGAAUGGAUCCACAUCUACGAAUUC…UUCACUGCAGACUUGACGAAGCUG
Outline: as §1

biotinyl-Trp-oxazolone = experiment: self-aminoacylation, catalytic enhancement (BWO) (fold over background); higher = more active; k-Seq, kA / k0A0; sequences stand for … in GGGAAUGGAUCCACAUCUACGAAUUC…UUCACUGCAGACUUGACGAAGCUG
Outline: as §1

Sequence	self-aminoacylation (biotinyl-Phe-oxazolone)	self-aminoacylation (biotinyl-Ile-oxazolone)	self-aminoacylation (biotinyl-Met-oxazolone)	self-aminoacylation (biotinyl-Val-oxazolone)	self-aminoacylation (biotinyl-Leu-oxazolone)	self-aminoacylation (biotinyl-Trp-oxazolone)
CUAGUUCAAACAAUCGCUCUG [Fam1A.1 aminoacylation ribozyme variant]	0.847	0.832	0.827	0.934	0.798	0.844
CUAGUUCAAACAAUCGGUCAG [Fam1A.1 aminoacylation ribozyme variant]	2.03	0.714	0.731	0.753	0.692	1.2
CUAGUUCAAACACUCGGUCUG [Fam1A.1 aminoacylation ribozyme variant]	5.58	1.35	1.46	1.31	1.48	1.04
CUAGUUCAAACGAUCGGUCUG [Fam1A.1 aminoacylation ribozyme variant]	0.559	0.782	0.812	0.794	0.844	0.58
CUAGUUCACACAAUCGGUCUG [Fam1A.1 aminoacylation ribozyme variant]	2.8	1.28	1.13	1.14	1.36	1.19
CUAUUUCAAACAAUCAGUCUG [Fam1A.1 aminoacylation ribozyme variant]	4.29	0.795	0.721	0.852	0.72	1.7
CUAUUUCAAACAAUCGGGCUG [Fam1A.1 aminoacylation ribozyme variant]	2.05	1.24	1.08	1	0.844	1.88
CUAUUUCAAACAAUCGGUCUU [Fam1A.1 aminoacylation ribozyme variant]	2.72	0.864	0.878	0.827	0.792	1.57
CUAUUUCAAACAAUCGGUUUG [Fam1A.1 aminoacylation ribozyme variant]	4.11	0.907	0.903	0.81	1	3.18
CUCACCCUGGUCAUCGAGUGA [Fam2.1 aminoacylation ribozyme variant]	27.1	3.71	5.33	4.49	7.38	6.74
CUCCGUCAAACAAUCGGUCUG [Fam1A.1 aminoacylation ribozyme variant]	1.97	1.07	1.02	0.973	0.889	1.29
CUCCUCCAAACAAUCGGUCUG [Fam1A.1 aminoacylation ribozyme variant]	2.28	1.06	0.973	0.846	0.846	2.85
CUCCUUAAAACAAUCGGUCUG [Fam1A.1 aminoacylation ribozyme variant]	1.05	1.06	1.12	0.862	0.899	1.32
CUCCUUCAAACAAUCGGCCUG [Fam1A.1 aminoacylation ribozyme variant]	131	2.04	2.63	2.15	3.39	61.7
CUCGUUCAAACAAUCGGUCUG [Fam1A.1 aminoacylation ribozyme variant]	10.2	1.09	0.961	1.07	1.31	6.95
CUGAUUCAAACAAUCGGUCUG [Fam1A.1 aminoacylation ribozyme variant]	9.61	0.947	0.923	0.828	1.14	6.12
CUGCAUCAAACAAUCGGUCUG [Fam1A.1 aminoacylation ribozyme variant]	10.1	1.08	1.13	1.05	1.18	7.51
CUGCUUCAAACAAUCGGGCUG [Fam1A.1 aminoacylation ribozyme variant]	38.7	2.2	2.66	2.33	3.18	36.1
CUGCUUCAAGCAAUCGGUCUG [Fam1A.1 aminoacylation ribozyme variant]	132	1.29	2.13	1.49	2.96	42.8
CUGCUUUAAACAAUCGGUCUG [Fam1A.1 aminoacylation ribozyme variant]	2	0.889	0.879	0.79	0.754	1.87
CUUACCCUGGACAUCGAGUGA [Fam2.1 aminoacylation ribozyme variant]	11.5	2.78	5.08	3.18	5.46	5.06
